B1: ch5-13 (antibody, V domains shown)
VH: QSVEESGGRLVTPGTPLTLTCTVSGFSLSSYHMSWVRQAPGKGLEWIGYILANTDSYYANWAKGRFTISKTSTTVDLKITSPTTEDTATYFCARYDNHDAAYSTLWGPGTLVTVSS
VL: AYDMTQTPASVEVAVGGTVTIKCQASQSISTALAWYQQKPGQPPKLLIYKASTLASGVSSRFKGSGSGTQFTLTISGVEPADAATYYCQQGYSRSNVDNVFGGGTEVVVK
B2: ch6-1 (antibody, V domains shown)
VH: QSLEESGGGLVQPEGSLTLTCTASGFSFSSSAWICWVRQAPGKGLEWIGCINTVSVNAYYASWAKGRFTISKTSSTTVTLQVTSLTAADTATHFCARNPYNSLRLWGPGTLVTVSS
VL: DVVMTQTPASVSEPVGGTITINCQASENIYSSLAWYQQKPGQPPKLLMYDVSDLASGVPSRFSGSGSGTEFALTISDVQPDDAATYFCLGGYPSNNYRMAFGGGTEVVVK
B3: IP-46-3 (antibody, V domains shown)
VH: EVQLQQSGPELVKPGASVKISCKTSGYTFTEYTMHWVKQSHGKSLEWIGGISPNIGGTSYNQKFKGKATLTVDKSSSTAYMELRSLTSEDSAVYYCARRGGSFDYWGQGTTLTVSS
VL: DIVMTQSPATLSVTPGDRVSLSCRASQSISDYLHWYQQKSHESPRLLIKYASQSISGIPSRFSGSGSGSDFTLSINSVEPEDVGVYYCQNGHSFPLTFGAGTKLELK
B4: ch3-7 (antibody, V domains shown)
VH: QSLEESGGRLVTPGTPLTLTCTVSGFSPSSYYMSWVRQAPGKGLEYIGIIFSGGSTWYASWAKGRVTISRTSTTVDLKMTSLTTEDTATYFCARGDAVGSGYWGLWGPGTLVTVSS
VL: AFELTQTPSSVEAAVGGTVTINCQASQDIYIYLAWYQQKPGQPPKLLIYSASTLASGVSSRFTGSRSGTQFTLTISDLEPADAATYYCQSYDGTSNTGFGGGTEVVVR

The target of the test is T1, human NKp46 ECD (human).
T1 chain: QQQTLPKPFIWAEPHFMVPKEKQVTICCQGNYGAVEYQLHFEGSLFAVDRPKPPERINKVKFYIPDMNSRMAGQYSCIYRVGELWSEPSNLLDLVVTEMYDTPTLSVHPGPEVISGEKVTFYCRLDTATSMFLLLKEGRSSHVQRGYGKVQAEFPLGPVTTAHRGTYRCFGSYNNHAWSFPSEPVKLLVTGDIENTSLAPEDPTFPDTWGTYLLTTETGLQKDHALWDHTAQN
Description: SPR, 25C.
A word on the Kd: it is the free concentration of one partner at which half of the binding sites on the other are occupied at equilibrium, for simple one-to-one binding. High values mean weaker binding, low ones tighter binding. As to B1, the dissociation constant (Kd) came to 0.194 nM.

B2 returned a Kd of 0.0209 nM.

The molecule B3 displayed a Kd of 0.361 nM.

B4 came in with an equilibrium dissociation constant (Kd) of 0.0199 nM.

Source of the values: patent US20260297188 (published 2026).
